Data published in the DeepSol protein solubility set.

Test: soluble on expression in E. coli; label from the status in PepcDB or PDB records

Row | Sequence | soluble on expression in E. coli
1 | MGSDKIHHHHHHMEDIIVVENLVKKFGDFEAVKGVSFSVKKGEIFAFLGPNGAGKTTTIHMLTTLLKPTSGKAWVAGHDVLKEPREVRRKIGIVFQDQSLDRELTAYENMYIHGKIYGYGGEKLKKRILELLEFVELLEFKDKPVKTFSGGMARRLEIARSLIHEPEVLFLDEPTIGLDPHTRAHMWEYISKMKKEHNMTIFLTTHYMDEAEQLADRVAIIDHGKIIALGTPTELKRMVGKEIIYVRFSEAVECLEGDFIESCRKLPDGRLELNVEDSGRAIPKIFELAQQKGLKIEEITYHKPTLNDVFLHLTGRELREEGPENSFKTMARMRMRMRR | not soluble
2 | TEDFRWKTTFNYSQNRNKVVELAPNYTSFVYGDPGFSMAYMMQIKEGGSLGDIYGNTFARDEQGKIKVSDEGKPISESGNKTYLGNCNPDFLLSWANTFTYKGFSLYFLIDMRKGGDVMSLTQATLDGRGVTKATAEARDRGYVEVDGTRFENVEGFYSVVGDRNGISERYMYSATNIRLRELSLSYSFPSTLLAKTKVFTGIDVSLVGRNLFFFYKDAPFDPDAILSVGNTNQGVDVFGMPTTRNIGFNVKFTF | not soluble
3 | MKVGVIGASEMAGSAIYKLAKQNLEIDVTGIVRHESKAKKVLGDDAKLIVGDIFALSDNILDKFDVIIDAFGTDPKNAEEHVILAKKLINLVRKNKIRVIFILGAGSLHTGDDEHLVVDDIAQMDNADTWINTPRQQLKELEYLNSIDDVDWLGISPALQFEAGPATEYIEGTDELLYNKDGDSKLTSGTMATVVIKETVDSVHHQERITIANALEHHHHHH | soluble
4 | MGSDKIHHHHHHMSNVKTAEFKRPQLSLPHSADKLLLHSCCAPCSGEVMEAITASGIDYTIFFYNPNIHPQREYLIRKEENIRFAEQHNVPFIDADYDSDNWFERAKGMEWEPERGIRCTMCFDMRFERTALYAAENGFSVISSSLGISRWKNMQQINECGQNAAQKYPGVTYWDYNWRKGGGSARMIEISKREHFYQQEYCGCIYSLRDSNKHRKSQGRDIIRIGKLYYGDEAE | not soluble
5 | MSLTPSIISIQSQVVHGHVGNSAAVLPMQGHGVTVAAVPTTLLSNHPGFETVRGRVLESELVGDLLRGVEERGLIETSGYIVSGYLGSRANGEVVASFVKRARRLNPDITYICDPVMGDAALGVFVADQVVSCLCDDLIPLADLLTPNQFEVGLIAGRPLSTWRELEAAVLKIRAPRGARLVVTGCALSDTPDGALENIVFDDKTHTRLTSPRLPLAPAGTGDLYTGLLTAKLARGHTLVEAACHAATSVLDVLQQTMAAGEHEMQLARAITTLGPACKETSEGHHHHHH | soluble
6 | MSLAVKPIPEGQHSITPYLAINDAAKAIEFYKQAFGAKEMFRLDAPGGRVGHAELRIGDSSLMLGDPCDMEGGLTASQKLSGAGVGLHLYVEDCDKVYAQALAAGGIQLHPLTDQFYGDRSGTLKDPFGNIWFVSTHKEDLTPDEIRARAAKMFGEGHHHHHH | soluble
7 | MNLYSLLLSLITGCFLLAQGGTSFSSPVETEKSAVTAQSILEKADEIRFPQDSFQVNVAIRTAAPDHAEDLYRYQVLSKGNENSIVMITEPASERGQAILMKGRDLWVFMPSVSQPIRLSLSQRLTGQVANGDIARANFTGDYHPQLLRNESIDDEDYYVLELTGIDRSVTYQKVLLWVNQSNFRPYKAEFYSVSGRLLKTSRYENFDNILGEMRPTRIIMEDALKSGEVSVLDYSDMKLRDLPDKIFTKDYLKRLE | not soluble
8 | MGHHHHHHSHMEGMDVDLDPELMQKFSCLGTTDKDVLISEFQRLLGFQLNPAGCAFFLDMTNWSLQAAIGAYYDFESPNISVPSMSFVEDVTIGEGESIPPDTQFVKTWRIQNSDVIWVILSVEVGGLLGVTQQLSSFETEFNTQPHRKVEGNFNPFASPQKNRQSDENNLKDPGGSEFDSISKNTWAPAPDTWAPAPDQTEQDQNRLSQNSVNLSPSSHANNLSVVTYSKGLHGPYPFGQS | soluble
9 | MSLSVNDRDTSALRYFDFKDDEFVKPSPTEFNSWINREIVTKHHPHHNGYDEIYTKNQPQVIEGDFLYGDVRVKLANEWVSIYEYSLDSSSPSWNKIGRAVTDTNGHIKYNIPNNMKLSYGMHLIKLYVEGDGTSANMYIQVLDNTKKYVVFDMDGTLTTTDFEDVKQYAGEFFNSNYVAKMYPDVDNVVKYYASKGYGILYLTARPYWLSEESQTWLWKNGFPMGLLHTYTGGDVLLGEEAESFKAGYLNQLKSQGIEFDYGFGNEKTDVEAYSNIGIAKSNIFTIGKNRGIDGSVSIVSYTDYLKQLSGNEGHHHHHH | soluble
10 | MVHGKLKEAAEVTGSVSLEALEEVQVGENIEVGVGIDELVNAEAFAYDFTLNYDENAFEYVEAISDDGVFVNAKKIEDGKVRVLVSSLTGEPLPAKEVLAKVVLRAEAKTEGSNLSVTNSSVGDGEGLVHEIAGTEKTVNIIEGTSPEIVVNPVRDFKASEINKKNVTVTWTEPETTEGLEGYILYKDGKKVAEIGKDETSYTFKKLNRHTIYNFKIAAKYSNGEVSSKESLTLRTAR | soluble
11 | MDKQLNDAPCGFLALSEEGSIIAANRTLIKILDYEPEQVIGQHMNMMLTIPAQLFCQLYFFPLLKLEHHIEEIYISLKARDGEEIPVLINAIARHDSGASVFDCVL | not soluble
12 | MATKARVMYDFAAEPGNNELTVNEGEIITITNPDVGGGWLEGRNIKGERGLVPTDYVEILPSDGKDQFSCGNSVADQAFLDSLSASTAQASSSAASNNHQVGSGNDPWSAWSASKSGNWESSEGWGAQPEGAGAQRNTNTPNNWDTAFGHPQAYQGPATGDDDDWDEDWDGPKSSSYFKDSESADAGGAQRGNSRASSSSMKIPLNKFPGFAKPGTEQYLLAKQLAKPKEKIPIIVGDYGPMWVYPTSTFDCVVADPRKGSKMYGLKSYIEYQLTPTNTNRSVNHRYKHFDWLYERLLVKFGSAIPIPSLPDKQVTGRFEEEFIKMRMERLQAWMTRMCRHPVISESEVFQQFLNFRDEKEWKTGKRKAERDELAGVMIFSTMEPEAPDLDLVEIEQKCEAVGKFTKAMDDGVKELLTVGQEHWKRCTGPLPKEYQKIGKALQSLATVFSSSGYQGETDLNDAITEAGKTYEEIASLVAEQPKKDLHFLMECNHEYKGFLGCFPDIIGTHKGAIEKVKESDKLVATSKITLQDKQNMVKRVSIMSYALQAEMNHFHSNRIYDYNSVIRLYLEQQVQFYETIAEKLRQALSRFPVM | soluble
13 | MAHHHHHHMESPQVAELNEDIVELNKLLAQAVRENVKEKIKKCIENTTVEIAKLKLEESQTPNKITEKNTPLNDSNISYNSVQSFAWNQEGNKVTVFLTVKDIHTIDKEKISAEFNERNFEVKMHQVNKKNYRFCVKKLHEKIVPGKCSFKVKKDALHVYLIKQDQKYWDNLHFKESPMSKIRAPKMDEQAEPSTMLMNMMKQLYQEGDSDMKRTIAKAWCEANEKKSDFSVPNF | soluble
14 | MLTVIAEIRTRPGQHHRQAVLDQFAKIVPTVLKEEGCHGYAPMVDCAAGVSFQSMAPDSIVMIEQWESIAHLEAHLQTPHMKAYSEAVKGDVLEMNIRILQPGI | soluble
15 | MTQPELTPAQRTEVELLARGRADKSRVLRDLKLPETPEAAHALLLRLGVWDEARTPYADRLRAALNAVELPVPDFDPAEERLDLTHLPTFAIDDEGNQDPDDAVGVEDLGGGLTRLWVHVADVAALVAPDSPLDLEARARGATLYLPDRTIGMLPDELVAKAGLGLHEVSPALSICLDLDPDGNAEAVDVLLTRVKVQRLAYQEAQARLEAGEEPFVTLARLARASRRLREGEGALSIDLPEVRVKADETGASVFPLPKPEMRTVVQECMTLAGWGTAIFADDNEIPLPFATQDYPTREVAGDTLPAMWARRKTLARTRFQPSPGPHHGMGLDLYAQATSPMRRYLDLVVHQQLRAFLAGRDPLSSKVMAAHIAESQMNADATRQAERLSRRHHTLRFIAAQPERVWDAVVVDRRGAQATLLIPDLAFDVQVNTPAAPGTALQVQFADIDLPQMRVRARSVLEHHHHHH | soluble
16 | MGHHHHHHSHMHISGVFATKDAVAVWNGRQVAIFELSGAAIRSAGTFLCETPVLAMHEENVYTVESNRVQVRTWQGTVKQLLLFSETEGNPCFLDICGNFLVVGTDLAHFKSFDLSRREAKAHCSCRSLAELVPGVGGIASLRCSSSGSTISILPSKADNSPDSKICFYDVEMDTVTVFDFKTGQAWCLALVEVGPKGPSARDASAETRVWETPHALHLPAPPSWRGPGSVGKGSCER | not soluble
17 | MGSDKIHHHHHHMKYLVSIDGGGTKTKFCVSDLDGNILKEHTTGSTNYKSVGIKKTYENINNGFKKILKDLYIDYDDIEYTVFGISGCDSPNDYKIIMDEILKIGINKEKIYLANDAVLAFYAQADSPGLVIVAGTGSIILGIKEDGEIYRVGGWGYNFSDLGSGYDIGRKLLKKVLLYCDECHEYSDLFSCVLDFFGANSFEQLAYMITDINDNVEIANLASLVIDCAEQGDKLAIEILRESSTELSKLAQVILRKISNPMKMDKSEINIVLSGGTLNKTVYVQMLMNNLKTENTDKNLKFISQENQPVYGGIRLAMALANRRVKHG | not soluble
18 | MADAEVIILPKKHKKKKERKSLPEEDVAEIQHAEEFLIKPESKVAKLDTSQWPLLLKNFDKLNVRTTHYTPLACGSNPLKREIGDYIRTGFINLDKPSNPSSHEVVAWIRRILRVEKTGHSGTLDPKVTGCLIVCIERATRLVKSQQSAGKEYVGIVRLHNAIEGGTQLSRALETLTGALFQRPPLIAAVKRQLRVRTIYESKMIEYDPERRLGIFWVSCEAGTYIRTLCVHLGLLLGVGGQMQELRRVRSGVMSEKDHMVTMHDVLDAQWLYDNHKDESYLRRVVYPLEKLLTSHKRLVMKDSAVNAICYGAKIMLPGVLRYEDGIEVNQEIVVITTKGEAICMAIALMTTAVISTCDHGIVAKIKRVIMERDTYPRKWGLGPKASQKKLMIKQGLLDKHGKPTDSTPATWKQEYVDYSESAKKEVVAEVVKAPQVVAEAAKTAKRKRESESESDETPPAAPQLIKKEKKKSKKDKKAKAGLESGAEPGDGDSDTTKKKKKKKKAKEVELVSE | soluble
19 | MGSDKIHHHHHHMRKDGHMQLQTIKVQGFKSIRELEFSLRPLNILIGANGSGKSNILGVFAFLRAMVERHLQMYVARAGGADRILHFGQKNTDSLQIELWFTKKNRRARGNIIANGYRCALVPAVGDRFVFAEERAFFHDRRYEKPVETLLGSGHEESLLPASYGRGIPADVFEAMQSWIVYHFHDTSDSARVKQTGDIDDNYWLRQDASNLTAYLYYIQQQAPDHYRNIVDVIRMVAPFFDDFVLRPSPFNPNKIKLEWRERGSDTYFDAYALSDGTLRFICLATLLLQPARKFPAIILLDEPEMGLHPYAIHVLAELLHSAATQTQVIVATQSVTLVNQFEPEDIVVVERQDGQPVCRRLTMEETETWLDGYGLGDLWEKNILGGRPLP | not soluble
20 | MATTTPERVMQETMDYHALNAMLNLYDKAGHIQFDKDQQAIDAFFATHVRPHSVTFASQHERLGTLVREGYYDDAVLARYDRAFVLRLFEHAHASGFRFQTFLGAWKFYTSYTLKTFDGKRYLEHFEDRVTMVALTLAQGDETLATQLTDEMLSGRFQPATPTFLNCGKQQRGELVSCFLLRIEDNMESIGRAVNSALQLSKRGGGVAFLLSNLREAGAPIKRIENQSSGVIPVMKMLEDAFSYANQLGARQGAGAVYLHAHHPDILRFLDTKRENADEKIRIKTLSLGVVIPDITFRLAKENAQMALFSPYDIQRRYGKPFGDIAISERYDELIADPHVRKTYINARDFFQTLAEIQFESGYPYIMFEDTVNRANPIAGRINMSNLCSEILQVNSASRYDDNLDYTHIGHDISCNLGSLNIAHVMDSPDIGRTVETAIRGLTAVSDMSHIRSVPSIAAGNAASHAIGLGQMNLHGYLAREGIAYGSPEALDFTNLYFYTITWHAVHTSMRLARERGKTFAGFAQSRYASGDYFTQYLQDDWQPKTAKVRALFARSGITLPTREMWLKLRDDVMRYGIYNQNLQAVPPTGSISYINHATSSIHPIVAKIEIRKEGKTGRVYYPAPFMTNENLDMYQDAYDIGPEKIIDTYAEATRHVDQGLSLTLFFPDTATTRDINKAQIYAWRKGIKSLYYIRLRQLALEGTEIEGCVSCAL | soluble
